How the values were obtained:
[1] = target: HR1 (heptad repeat 1) domain of SARS-CoV-2 spike protein (SARS-CoV-2) (UniProt P0DTC2); experiment: AUC; sedimentation velocity, 50,000 rpm, 20 C, 50 mM NaCl, 25 mM sodium phosphate pH 6.0, no detergent; monomer to tetramer
[2] = target: 6HB (HR1-linker-HR2) of SARS-CoV-2 fusion protein (SARS-CoV-2) (UniProt P0DTC2); experiment: SEC-MALS; Superose-12, room temperature, 20 mM sodium phosphate pH 6.0, 30 mM NaCl; injected 65 uM 6HB, 90 uM HR1
[3] = target: 6HB (HR1-linker-HR2) of SARS-CoV-2 fusion protein (SARS-CoV-2) (UniProt P0DTC2); experiment: AUC; sedimentation velocity, 50,000 rpm, 20 C, 50 mM NaCl, 25 mM sodium phosphate pH 6.0, no detergent; monomer to tetramer

Substance | stoichiometry N [1] | stoichiometry N [2] | stoichiometry N [3]
HR1 (heptad repeat 1) domain of SARS-CoV-2 spike protein (from UniProt P0DTC2 918-965) (domain or fragment) | 4 |  | 
6HB (HR1-linker-HR2) of SARS-CoV-2 fusion protein (from UniProt P0DTC2 918-965; P0DTC2 1171-1207) |  | 3 | 3
